Assays:
[1] = target: T1, L-selectin on PBMC / lymphocytes (Homo sapiens, UniProt P14151 P14151:39-372); assay: flow; half-saturation; described as LD201T4 dumbell dimer; conditions: label: fluorescein
T1 sequence: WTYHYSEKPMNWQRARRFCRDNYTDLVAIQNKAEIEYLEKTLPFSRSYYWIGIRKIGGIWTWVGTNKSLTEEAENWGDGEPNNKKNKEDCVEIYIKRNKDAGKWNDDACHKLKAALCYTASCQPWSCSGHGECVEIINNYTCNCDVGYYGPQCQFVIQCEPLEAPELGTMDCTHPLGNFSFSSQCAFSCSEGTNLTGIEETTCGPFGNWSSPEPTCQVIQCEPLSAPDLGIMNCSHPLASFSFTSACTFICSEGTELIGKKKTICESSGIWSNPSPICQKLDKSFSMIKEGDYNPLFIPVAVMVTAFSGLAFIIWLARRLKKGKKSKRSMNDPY

P-selectin (PS-Rg) [2] = target: T2, P-selectin (PS-Rg) (Homo sapiens, UniProt P16109 P16109:42-321); assay: filter; streptavidin complex; conditions: tags: human IgG Fc fusion; chain copies: 2 (stated dimer)
T2 sequence (P16109 42-321, one chain of several): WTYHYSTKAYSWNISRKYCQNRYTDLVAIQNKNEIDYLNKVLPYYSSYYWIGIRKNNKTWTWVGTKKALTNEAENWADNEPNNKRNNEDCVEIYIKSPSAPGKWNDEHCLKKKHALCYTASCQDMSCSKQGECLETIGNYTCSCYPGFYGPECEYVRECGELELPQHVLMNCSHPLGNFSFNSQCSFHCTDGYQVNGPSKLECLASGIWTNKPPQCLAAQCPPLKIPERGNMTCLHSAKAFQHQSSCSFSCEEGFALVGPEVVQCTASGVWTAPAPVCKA

[3] = target: T1, L-selectin on PBMC / lymphocytes; assay: flow; half-saturation; described as LD201T4 fork dimer; conditions: label: fluorescein
L-selectin (LS-Rg) [4] = target: T3, L-selectin (LS-Rg) (Homo sapiens, UniProt P14151 P14151:39-332); assay: filter; affinity reduction versus full length LF1807; called LF1807T5 in Table 16; conditions: tags: human IgG2 Fc fusion; chain copies: 2 (stated dimer)
T3 sequence: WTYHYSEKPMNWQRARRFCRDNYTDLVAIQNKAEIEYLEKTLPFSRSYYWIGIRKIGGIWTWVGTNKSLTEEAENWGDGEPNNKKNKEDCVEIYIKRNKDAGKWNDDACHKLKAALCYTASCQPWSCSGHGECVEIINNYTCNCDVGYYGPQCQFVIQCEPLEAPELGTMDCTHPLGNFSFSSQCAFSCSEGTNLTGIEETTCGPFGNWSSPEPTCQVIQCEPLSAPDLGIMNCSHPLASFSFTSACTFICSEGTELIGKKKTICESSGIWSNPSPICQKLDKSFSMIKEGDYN
Experimental: (§1) As described in SELEX Patent Applications, a nitrocellulose filter partitioning method was used to determine the affinity of RNA ligands for LS-Rg and for other proteins. Filter discs (nitrocellulose/cellulose acetate mixed matrix, 0.45 μm pore size, Millipore) were placed on a vacuum manifold and washed with 3 ml of SHMCK 140 buffer under vacuum. Reaction mixtures, containing ³²P labeled RNA pools and unlabeled LS-Rg, were incubated in SHMCK 140 for 10-20 min at 37° C., and then immediately washed with 3 ml SHMCK 140. The filters were air-dried and counted in a Beckman LS6500 liquid scintillation counter without fluor. Alternatively, binding studies employed 96 well micro-titer manifolds essentially as described in Example 13, paragraph E.
Predictions of minimal high affinity sequences for family 1 ligands can be made and serve as a partial test of the postulated secondary structure.

soluble L-selectin = target: T4, soluble L-selectin (Homo sapiens, UniProt P14151 P14151:39-332); assay: filter; 37 C; table prints SEQ 339; conditions: tags: R&D Systems
T4 sequence: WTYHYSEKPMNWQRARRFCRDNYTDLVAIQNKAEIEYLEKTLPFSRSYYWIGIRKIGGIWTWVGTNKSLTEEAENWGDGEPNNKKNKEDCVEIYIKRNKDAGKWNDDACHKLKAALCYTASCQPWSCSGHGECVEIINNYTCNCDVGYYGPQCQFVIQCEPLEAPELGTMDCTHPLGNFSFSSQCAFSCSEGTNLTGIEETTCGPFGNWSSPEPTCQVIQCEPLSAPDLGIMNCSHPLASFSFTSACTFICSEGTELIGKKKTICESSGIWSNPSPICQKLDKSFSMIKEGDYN
Experimental: Unless otherwise indicated, all materials used in the 2′-F RNA SELEX against the L-selectin/IgG2 chimera, LS-Rg, were identical to those of Examples 7, paragraph A and 13, paragraph A. SHMCK-140 buffer, used for all SELEX and binding experiments, was 1 mM CaCl₂, 1 mM MgCC₂, 140 mM NaCl, 5 mM KCl. and 20 mM HEPES, pH 7.4. A soluble form of L-selectin, corresponding to the extracellular domains, was purchased from R&D Systems and used for some nitrocellulose filter binding experiments.
as §1

P-selectin (PS-Rg) [5] = target: T2, P-selectin (PS-Rg); assay: filter; conditions: tags: human IgG Fc fusion; chain copies: 2 (stated dimer)
P-selectin (PS-Rg) [6] = target: T2, P-selectin (PS-Rg); assay: inhibition; sialyl-LewisX; conditions: tags: human IgG Fc fusion; chain copies: 2 (stated dimer)
P-selectin (PS-Rg) [7] = target: T2, P-selectin (PS-Rg); assay: filter; Table 21 gives 63 pM; conditions: tags: human IgG Fc fusion; chain copies: 2 (stated dimer)
[8] = target: T1, L-selectin on PBMC / lymphocytes; assay: flow; half-saturation, monomer; conditions: hairpin
Excerpt: A variety of monomeric nucleic acid ligands and multivalent Complexes have been examined in flow cytometry.

L-selectin (LS-Rg) [9] = target: T3, L-selectin (LS-Rg); assay: filter; room temperature; repeat of Table 13 (57 pM); conditions: tags: human IgG2 Fc fusion; chain copies: 2 (stated dimer)
Experimental: As described in SELEX Patent Applications and in Example 7, paragraph C, a nitrocellulose filter partitioning method was used to determine the affinity of ssDNA ligands for LS-Rg and for other proteins. For these experiments a Gibco BRL 96 well manifold was substituted for the 12 well Millipore manifold used in Example 7 and radioactivity was determined with a Fujix BAS100 phosphorimager. Bindin, data were analyzed as described in Example 7, paragraph C.

P-selectin (PS-Rg) [10] = target: T2, P-selectin (PS-Rg); assay: inhibition; sialyl-LewisX; text says about 2 nM; conditions: tags: human IgG Fc fusion; chain copies: 2 (stated dimer)
Experimental: The ability of evolved RNA pools or cloned ligands to inhibit the binding of PS-Rg to sialyl-Lewis^x was tested in competitive ELISA assays (C. Foxall et al., 1992, supra). For these assays, the wells of Corning (25801) 96 well microtiter plates were coated with 100 ng of a sialyl-Lewis^x/BSA conjugate, air dried overnight, washed with 300 μl of PBS(−) and then blocked with 1% BSA in HSMC for 60 min at room temperature. RNA ligands were incubated with PS-Rg in HSMC/1% BSA at room temperature for 15 min. After removal of the blocking solution, 50 μl of PS-Rg (10 nM) or a PS-Rg (10 nM)/RNA ligand mix was added to the coated, blocked wells and incubated at room temperature for 60 minutes. The binding solution was removed, wells were washed with 300 μl of PBS(−) and then probed with HRP conjugated anti-human IgG, at room temperature to quantitate PS-Rg binding. After a 30 minute incubation at room temperature in the dark with OPD peroxidase substrate (Sigma P9187), the extent of PS-Rg binding and percent inhibition was determined from the OD₄₅₀.

B1: NX303 dumbell dimer (ssDNA)
DNA: TCCAGTACAAGGTGCTAAACGTAATGGTT
modifications: two copies on PEG 3400, 5' amino C6 dT, 3'-3' terminal [1 = 5' amino modifier C6 dT; 29 = 3'-3' terminal dT; two identical copies on PEG 3400 (PEG left out)]
With B1 the EC50 [1] was 0.1 nM.

B2: PF377s1B:SA (ssRNA)
RNA: CUCAACGAGCCAGGAACAUCGACGUCAGCAAACGCGAG
modifications: 2'-F C and U, biotin bound to streptavidin
In the case of B2, the Kd (P-selectin (PS-Rg) [2]) is reported as 0.03 nM.

B3: NX303 fork dimer (ssDNA)
DNA: TCCAGTACAAGGTGCTAAACGTAATGGTT
modifications: two copies on forked 20 kDa PEG, 5' amino C6 dT, 3'-3' terminal [1 = 5' amino modifier C6 dT; 29 = 3'-3' terminal dT; two identical copies on forked 20 kDa PEG (PEG left out)]
In the case of B3, the EC50 [3] is reported as 0.6 nM.

B4: LF1807T4 (ssRNA)
RNA: GGAGUCUUAGGCAGCGCGUUUUCGAGCUACUCC
modifications: 2'-F C and U
B4 gave a binding signal (L-selectin (LS-Rg) [4]) of about 3 fold.

B5: LF1520 (ssRNA)
RNA: GGGAGGACGAUGCGGAUCGAUUUCAUGCGUUUUUCGAGUGACGAUCAGACGACUCGCCCGA
modifications: 2'-F C and U
With B5 the Kd (soluble L-selectin) was 0.5 nM.

B6: PF424s1 (ssRNA)
RNA: CUCAACGAGUUCACAUGGGAGCAAUCUCCGAAUAAACAACACGCGAG
modifications: 2'-F C and U
In the case of B6, the Kd (P-selectin (PS-Rg) [5]) is reported as 0.178 nM.

B7: PF398s1 (ssRNA)
RNA: CUCAACGAACCACGGGGAAAUCCACCAGUAACACGCGAG
modifications: 2'-F C and U
For B7, the IC50 (P-selectin (PS-Rg) [6]) was 2 nM and the Kd (P-selectin (PS-Rg) [7]) was 0.178 nM.

B8: LD201T4 (ssDNA)
DNA: CCAGTACAAGGTGCTAAACGTAATGG
B8 showed an EC50 [8] of 20 nM.

B9: LD230 (ssDNA)
DNA: CTACCTACGATCTGACTAGCTGCACACCTGAGGGTTACAAGGCGCTAGACGTAACCTCTCGCTTACTCTCATGTAGTTCC
Binder B9 has a Kd (L-selectin (LS-Rg) [9]) of 0.044 nM.

B10: PF377 (ssRNA)
RNA: GGGAGACAAGAAUAAACGCUCAACGAGCCAGGAACAUCGACGUCAGCAAACGCGAGCGCAACCAGUAACACCUUCGACAGGAGGCUCACAACAGGC
modifications: 2'-F C and U
Binder B10 has an IC50 (P-selectin (PS-Rg) [10]) of 3 nM.
